From the supplement of paper PMC6379048
pEC50: −log10 of the molar value.

Key:
Assay in all cases: EC50 of free RNA motif oligo competing protein binding to immobilised probe
[1] = biological target: T1, DAZAP1 (UniProt Q96EP5)
T1 sequence: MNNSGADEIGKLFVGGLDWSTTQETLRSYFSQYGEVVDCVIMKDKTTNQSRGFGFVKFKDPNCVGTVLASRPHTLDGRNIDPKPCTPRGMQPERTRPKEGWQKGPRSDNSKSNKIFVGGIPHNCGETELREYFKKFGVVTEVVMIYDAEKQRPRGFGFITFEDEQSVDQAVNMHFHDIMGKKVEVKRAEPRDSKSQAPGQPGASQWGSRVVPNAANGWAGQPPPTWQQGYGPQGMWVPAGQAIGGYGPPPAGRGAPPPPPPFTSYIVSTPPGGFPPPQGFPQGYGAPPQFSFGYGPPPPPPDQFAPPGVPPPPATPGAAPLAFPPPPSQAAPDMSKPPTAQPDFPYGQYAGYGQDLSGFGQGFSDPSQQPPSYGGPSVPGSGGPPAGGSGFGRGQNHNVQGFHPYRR
Outline: (§1)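 Kd was calculated as EC50, taken from a four-parameter log-logistic fit, multiplied by a protein-dependent depletion factor. The assay used HEK293-FT lysate (2.5 mg protein/well) pre-incubated for 1 h at 4°C with free RNA oligos (0 nM to 30 μM), then incubated for 30 min at 4°C with the matching oligos bound through a 5′-amino-C6 linker to NHS-Sepharose beads. Bound proteins were measured by label-free LC-MS/MS and normalised to the control.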

[2] = biological target: T2, MEX3A (UniProt A1L020)
T2 sequence: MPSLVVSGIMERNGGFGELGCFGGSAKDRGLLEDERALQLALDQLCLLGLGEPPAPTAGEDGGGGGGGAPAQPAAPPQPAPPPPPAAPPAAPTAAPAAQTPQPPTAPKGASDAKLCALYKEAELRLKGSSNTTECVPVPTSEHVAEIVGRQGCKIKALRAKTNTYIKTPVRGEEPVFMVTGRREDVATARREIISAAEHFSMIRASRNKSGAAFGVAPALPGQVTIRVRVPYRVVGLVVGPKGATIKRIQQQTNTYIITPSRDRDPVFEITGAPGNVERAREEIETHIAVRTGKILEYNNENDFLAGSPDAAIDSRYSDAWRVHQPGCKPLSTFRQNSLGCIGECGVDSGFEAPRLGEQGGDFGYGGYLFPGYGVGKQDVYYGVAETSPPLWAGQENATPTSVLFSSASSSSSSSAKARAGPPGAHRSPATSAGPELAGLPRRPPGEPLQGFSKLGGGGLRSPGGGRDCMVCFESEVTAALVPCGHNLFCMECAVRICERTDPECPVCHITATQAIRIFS
Outline: as §1

[3] = biological target: T3, PATL1 (UniProt Q86TB9)
T3 sequence: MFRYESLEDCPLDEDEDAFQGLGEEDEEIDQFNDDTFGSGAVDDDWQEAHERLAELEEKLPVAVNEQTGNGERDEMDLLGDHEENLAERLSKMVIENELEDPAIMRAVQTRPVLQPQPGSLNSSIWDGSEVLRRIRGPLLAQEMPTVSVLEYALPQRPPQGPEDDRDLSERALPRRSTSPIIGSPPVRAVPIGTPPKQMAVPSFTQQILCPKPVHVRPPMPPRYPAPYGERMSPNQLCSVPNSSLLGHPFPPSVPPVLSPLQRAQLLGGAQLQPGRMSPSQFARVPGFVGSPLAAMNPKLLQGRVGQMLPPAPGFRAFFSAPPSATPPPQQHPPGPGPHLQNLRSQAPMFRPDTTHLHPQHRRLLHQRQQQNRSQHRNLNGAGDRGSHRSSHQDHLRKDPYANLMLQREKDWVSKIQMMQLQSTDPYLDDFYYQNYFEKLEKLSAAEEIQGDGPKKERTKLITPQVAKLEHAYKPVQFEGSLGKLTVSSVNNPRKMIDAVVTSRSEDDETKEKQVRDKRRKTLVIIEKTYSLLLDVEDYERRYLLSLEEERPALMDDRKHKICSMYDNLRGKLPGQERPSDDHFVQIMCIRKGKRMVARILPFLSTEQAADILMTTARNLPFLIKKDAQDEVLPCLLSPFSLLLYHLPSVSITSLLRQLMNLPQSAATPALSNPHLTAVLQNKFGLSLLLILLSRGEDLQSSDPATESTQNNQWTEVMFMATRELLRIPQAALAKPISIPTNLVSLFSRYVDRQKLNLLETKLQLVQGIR
Outline: as §1

[4] = biological target: ZCCHC24 (UniProt Q8N2G6)
Outline: as §1

Sequence of ZCCHC24 (Q8N2G6 whole entry): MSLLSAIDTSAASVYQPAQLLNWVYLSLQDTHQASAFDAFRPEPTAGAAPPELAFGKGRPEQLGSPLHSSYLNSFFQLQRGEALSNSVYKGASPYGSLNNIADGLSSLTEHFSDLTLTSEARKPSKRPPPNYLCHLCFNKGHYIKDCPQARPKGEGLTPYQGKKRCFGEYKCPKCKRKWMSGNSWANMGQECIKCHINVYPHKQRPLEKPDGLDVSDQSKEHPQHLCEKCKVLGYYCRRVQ

Sequence | pEC50 [1] | pEC50 [2] | pEC50 [3] | pEC50 [4]
AAUAAA | 5.91 | 5.83 | 6.33 | 6.26
UAUUUAU | 5.91 | 6.00 | 6.39 | 5.60
